Publication PMC6904456

Legend:
Thrombin (THR) [1] = biological target: T1, Thrombin (THR) (UniProt P00734;P00734 328-363;364-622); experiment: SPR (D-shaped plastic optical fibre); 1-50 nM thrombin, no shift of resonance wavelength; Immobilization in 10 mM phosphate, 138 mM NaCl, 2.7 mM KCl, pH 7.4; sensing in binding buffer (composition and temperature not given in material)
Thrombin (THR) [2] = biological target: T1, Thrombin (THR); experiment: SPR (D-shaped plastic optical fibre, Langmuir fit); 10 uM aptamer for immobilization; Langmuir K, printed as K [nM]; Immobilization in 10 mM phosphate, 138 mM NaCl, 2.7 mM KCl, pH 7.4; sensing in binding buffer (composition and temperature not given in material)

Binder	binding result (Thrombin (THR) [1])	Kd (Thrombin (THR) [2])
CACCAATATTTACGTTCTACTCTCCAATA (ssDNA, 5' BiotinTEG) [non specific aptamer sequence]	no binding	–
AGTCCGTGGTAGGGCAGGTTGGGGTGACT (ssDNA, 5' BiotinTEG) [TBA29 (biotin-TBA29 thrombin aptamer)]	–	21.8 nM
